Patent publication US20160334414A1 (BAXALTA, published 2016)

B1: monoclonal rabbit anti-RAM9 idiotypic antibody 54-5 (antibody, V domains shown)
VH: QSLEESGGDLVKPGASLTLTCTASGFSFSSGYDMCWVRQAPGKGLEWIACIYDGDVRTYYASWAKGRFTISRTSSTTMTLQMTGLTAADTATYLCARGASGYLSALYLWGPGTLVTVSS
VL: DVVMTQTPASVSEPVGGTVTIKCQASFTITSNLAWYQQKPGQPPKLLIYGASNLASGVSSRFRGSGFGTEFTLTISDLECADAATYYCQCAAVLSSWTFGGGTEVVVKG
notes: Rabbit IgG; also called anti-RAM9-54-5; Clone 54-5
B2: anti-oxMIF antibody RAM9 (antibody, V domains shown)
VH: EVQLLESGGGLVQPGGSLRLSCAASGFTFSIYSMNWVRQAPGKGLEWVSSIGSSGGTTYYADSVKGRFTISRDNSKNTLYLQMNSLRAEDTAVYYCAGSQWLYGMDVWGQGTTVTVSS
VL: DIQMTQSPSSLSASVGDRVTITCRSSQRIMTYLNWYQQKPGKAPKLLIFVASHSQSGVPSRFRGSGSETDFTLTISGLQPEDSATYYCQQSFWTPLTFGGGTKVEIKR
notes: also called biotinylated RAM9
B3: monoclonal rabbit anti-RAM9 idiotypic antibody 68-1 (antibody, V domains shown)
VH: QEQLKESGGRLVKPGGTLTLTCKASGMDFNNYYYMAWVRQAPGKGLEWIGYISGGGSPYYASWAKGRFTISRTSTTVDLKMTSLTTEDTATYFCGRYTDINNGIDLWGPGTLVTVSS
VL: DIVMTQTPSSVSEPVGGTVTINCQASENIYSNLAWYQQKPGQPPKLLIYLASSLTSGVPSRFKGSGSGTEFTLTISDLECADAAIYYCQNNYGDVRYGRNAFGGGTEVVVKG
notes: Rabbit IgG; also called anti-RAM9-68-1; Clone 68-1

Legend:
anti-oxMIF antibody RAM9 = biological target: B2; assay: secondary screening (neutralising) ELISA with finally purified antibody: inhibition of biotinylated RAM9 binding to coated human MIF, % recovery; the number stands in paragraph 159 without a unit, ng/ml is from the axis log c (ng/ml) of the figure
Method: Microplates were coated with human MIF (10 μg/ml PBS, 100 μl/well) and blocked with 250 μl 1.5% fish gelatin in PBS. Washing steps (4×250 μl of PBS per well) were included between the incubations. The samples were serially pre-diluted (in 1% fish gelatin/PBS) to 2× final dilution and mixed with an equivalent volume of biotinylated RAM9 (30 ng/ml) (equivalent to a 1:2 dilution, final concentration of RAM9 is therefore 15 ng/ml). These mixtures were allowed to form complexes for 30 min. […] Biotinylated RAM9 captured on the plate was detected using HRP coupled Streptavidin and TMB as chromogenic substrate. The absorbance of each well was related to the absorbance of the standard curve by linear regression and is expressed in ng/ml. The concentration calculated for biotinylated RAM9 in the sample is related to the calculated concentration of biotinylated RAM9 in the negative control (% recovery=(100%/measured concentration of biotinylated RAM9 in the negative control)×measured concentration of RAM9 in the sample). Half maximal binding inhibition (IC₅₀) by anti-RAM9 antibodies is calculated by blotting log concentration of rabbit anti-RAM9 against % recovery and non-linear 4-parameter curve fit with variable slope FIG. 4a.

[1] = biological target: T1, oxMIF in human tissue cryosections (human, UniProt P14174 2-115); assay: IHC on infiltrating ductal carcinoma of the pancreas, RAM9 detected by rabbit anti-RAM9 54-5 or 68-1
T1 construct: also called oxidized MIF
T1 sequence (P14174 2-115 limits assumed): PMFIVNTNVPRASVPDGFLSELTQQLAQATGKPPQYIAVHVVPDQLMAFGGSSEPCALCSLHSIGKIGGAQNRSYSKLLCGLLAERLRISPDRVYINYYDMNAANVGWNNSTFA
Method: (§1) The slides were prepared according to state of the art techniques known to experts, either fresh frozen or OCT embedded, sectioned at 10 μm and stored at <=−80° C. after sectioning. All following steps were done at ambient temperature. The cryo-sections were air dried for 30 min and unspecific binding was blocked with blocking buffer (BB: 20% Normal Goat Serum/2% Bovine Serum Albumin/0.2% Fish Gelatine in TBS) for 15 min. The sections were then incubated without primary antibody or with anti-oxMIF antibody RAM9 in primary antibody dilution buffer (PADB: 2% Bovine Serum Albumin/0.2% Fish Gelatine in TBS) at a concentration of 2 μg/ml for 60 min. After washing in TBS, the specimen was fixed in 4% PBS buffered formaldehyde for 20 min. Excess formaldehyde was removed by washing in TBS for 5-10 min, Endogenous peroxidases were blocked by incubating the tissue sections in 0.3% H₂O₂ in methanol for 20 min. Excess methanol/H₂O₂ was removed by washing in TBS for 5-10 min. Detection of was done by incubating the tissue sections with anti-idiotypic rabbit monoclonal antibodies (68-1) diluted in PADS at 1 μg/ml for 30 min. Excess detection antibody was removed by washing in TBS for 5-10 min. The staining was done using SignalStain® Boost IHC Detection Reagent Rabbit for 30 min. Then the sections were extensively washed again 10 min in TBS. […]

[2] = biological target: T1, oxMIF in human tissue cryosections; assay: IHC on pancreas cryosections, 68-1 without the primary antibody RAM9
Method: as §1

IC50 (anti-oxMIF antibody RAM9) [µg/mL]	binding result [1]	binding result [2]	Binder
0.00596	–	–	B1
–	binds	–	B2
0.0296	–	no binding (tested: 1 µg/ml)	B3
